T1: K31A
T1 construct: also called hCD27 K31A
T1 receptor: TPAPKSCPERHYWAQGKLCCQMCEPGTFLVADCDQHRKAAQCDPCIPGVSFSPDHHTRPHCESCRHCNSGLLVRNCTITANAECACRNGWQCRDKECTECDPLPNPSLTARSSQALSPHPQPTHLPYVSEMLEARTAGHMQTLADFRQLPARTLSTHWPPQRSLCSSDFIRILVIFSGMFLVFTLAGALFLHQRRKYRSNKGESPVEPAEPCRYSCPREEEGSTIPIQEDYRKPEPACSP

T2: R37A
T2 construct: also called hCD27 R37A
T2 receptor: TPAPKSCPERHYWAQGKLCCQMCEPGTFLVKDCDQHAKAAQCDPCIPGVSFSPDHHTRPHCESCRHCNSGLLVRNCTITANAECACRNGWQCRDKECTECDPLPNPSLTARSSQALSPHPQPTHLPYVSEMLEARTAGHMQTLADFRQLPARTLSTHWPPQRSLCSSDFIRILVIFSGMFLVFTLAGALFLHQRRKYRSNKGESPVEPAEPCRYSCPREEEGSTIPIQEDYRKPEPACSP

T3: Q41A
T3 construct: also called hCD27 Q41A
T3 receptor: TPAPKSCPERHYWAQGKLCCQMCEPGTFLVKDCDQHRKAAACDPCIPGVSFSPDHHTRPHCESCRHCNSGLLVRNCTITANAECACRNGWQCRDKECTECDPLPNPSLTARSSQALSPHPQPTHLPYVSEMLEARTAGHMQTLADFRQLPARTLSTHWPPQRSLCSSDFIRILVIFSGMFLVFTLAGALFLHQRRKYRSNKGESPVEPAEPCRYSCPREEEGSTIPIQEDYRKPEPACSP

T4: R10A
T4 construct: also called hCD27 R10A
T4 receptor: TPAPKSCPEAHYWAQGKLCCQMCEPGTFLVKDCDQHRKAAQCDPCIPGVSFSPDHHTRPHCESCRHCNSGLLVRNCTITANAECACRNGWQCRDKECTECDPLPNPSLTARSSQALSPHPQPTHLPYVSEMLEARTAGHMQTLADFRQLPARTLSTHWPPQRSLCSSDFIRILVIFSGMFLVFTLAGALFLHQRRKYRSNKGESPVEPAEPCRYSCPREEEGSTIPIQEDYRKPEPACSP

T5: H36A
T5 construct: also called hCD27 H36A
T5 receptor: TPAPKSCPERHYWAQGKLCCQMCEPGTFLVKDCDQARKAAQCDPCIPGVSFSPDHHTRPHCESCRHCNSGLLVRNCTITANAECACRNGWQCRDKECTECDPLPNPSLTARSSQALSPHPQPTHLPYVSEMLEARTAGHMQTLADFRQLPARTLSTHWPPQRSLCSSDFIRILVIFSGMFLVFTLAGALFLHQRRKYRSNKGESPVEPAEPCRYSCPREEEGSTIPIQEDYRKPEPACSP

T6: R93A
T6 construct: also called hCD27 R93A
T6 receptor: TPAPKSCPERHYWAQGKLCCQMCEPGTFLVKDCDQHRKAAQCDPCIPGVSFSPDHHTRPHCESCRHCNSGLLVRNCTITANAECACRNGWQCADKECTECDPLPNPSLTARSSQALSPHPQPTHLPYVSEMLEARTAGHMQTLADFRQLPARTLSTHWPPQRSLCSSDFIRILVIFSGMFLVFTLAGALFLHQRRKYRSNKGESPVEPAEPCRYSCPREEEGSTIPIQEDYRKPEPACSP

T7: Q91A
T7 construct: also called hCD27 Q91A
T7 receptor: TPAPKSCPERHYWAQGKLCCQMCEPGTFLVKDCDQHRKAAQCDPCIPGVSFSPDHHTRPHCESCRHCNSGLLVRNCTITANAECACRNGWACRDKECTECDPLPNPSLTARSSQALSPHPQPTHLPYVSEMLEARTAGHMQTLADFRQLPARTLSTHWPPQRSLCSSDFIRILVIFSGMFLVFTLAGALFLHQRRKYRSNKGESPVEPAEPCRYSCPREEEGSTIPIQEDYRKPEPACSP

T8: G89A
T8 construct: also called hCD27 G89A
T8 receptor: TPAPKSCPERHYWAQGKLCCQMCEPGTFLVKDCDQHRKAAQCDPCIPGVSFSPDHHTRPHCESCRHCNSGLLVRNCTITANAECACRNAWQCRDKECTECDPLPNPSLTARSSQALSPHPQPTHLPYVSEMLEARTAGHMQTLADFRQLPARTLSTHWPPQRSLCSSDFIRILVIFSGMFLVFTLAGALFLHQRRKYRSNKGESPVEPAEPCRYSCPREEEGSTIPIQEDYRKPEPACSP

T9: Q15A
T9 construct: also called hCD27 Q15A
T9 receptor: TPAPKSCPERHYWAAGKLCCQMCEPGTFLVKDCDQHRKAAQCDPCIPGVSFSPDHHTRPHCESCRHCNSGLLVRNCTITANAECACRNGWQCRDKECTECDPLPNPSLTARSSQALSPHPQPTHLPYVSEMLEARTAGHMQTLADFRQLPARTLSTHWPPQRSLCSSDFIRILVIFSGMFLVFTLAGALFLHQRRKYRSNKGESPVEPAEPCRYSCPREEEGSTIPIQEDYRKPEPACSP

T10: D32A
T10 construct: also called hCD27 D32A
T10 receptor: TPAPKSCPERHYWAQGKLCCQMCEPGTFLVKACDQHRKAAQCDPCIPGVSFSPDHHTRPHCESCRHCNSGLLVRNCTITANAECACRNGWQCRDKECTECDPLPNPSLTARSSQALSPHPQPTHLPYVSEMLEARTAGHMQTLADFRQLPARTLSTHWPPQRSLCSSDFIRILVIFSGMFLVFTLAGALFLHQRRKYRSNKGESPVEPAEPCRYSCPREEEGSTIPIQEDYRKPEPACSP


What was measured:
Assay in all cases: flow cytometry, CHO-K1; sub-column 2 of 2
[1] = target: T1, K31A
[2] = target: T2, R37A
[3] = target: T3, Q41A
[4] = target: T4, R10A
[5] = target: T5, H36A
[6] = target: T6, R93A
[7] = target: T7, Q91A
[8] = target: T8, G89A
[9] = target: T9, Q15A
[10] = target: T10, D32A

% of WT hCD27 binding (geo mean FITC) [1] [%]	% of WT hCD27 binding (geo mean FITC) [2] [%]	% of WT hCD27 binding (geo mean FITC) [3] [%]	% of WT hCD27 binding (geo mean FITC) [4] [%]	% of WT hCD27 binding (geo mean FITC) [5] [%]	% of WT hCD27 binding (geo mean FITC) [6] [%]	% of WT hCD27 binding (geo mean FITC) [7] [%]	% of WT hCD27 binding (geo mean FITC) [8] [%]	% of WT hCD27 binding (geo mean FITC) [9] [%]	% of WT hCD27 binding (geo mean FITC) [10] [%]	Molecule
138	87	76.1	113	85.2	91.1	120	81.8	7.6	8.7	1A4 (mouse IgG1) (antibody)
133	6.2	71.3	99	66.5	91.1	111	77.5	118	66.3	9F4 (mouse IgG2a) (antibody)
134	9.6	80.5	108	10.8	90	136	82.9	136	62.1	Antibody hCD27.131A (mouse parental 131A) (antibody, V domains shown, mouse IgG1; also called mouse hCD27.131A) VH: QIQLVQSGPELKKPGETVKISCKASGYTFTNYGMNWVKQAPGKGLKWMGWINTNTGEPTYAEEFKGRFAFSLETSATTAYLQINNLKNEDTATYFCAREGDAMDYWGQGTSVTVSS VL: QIVLTQSPAIMSASPGEKVTMTCSASSSVSYMHWYQQKSGTSPKRWIYDTSKLASGVPARFSGSGSGTSYSLTISSMEAEDAATYYCQQWNSYPFTFGSGTKLEIK

Reference: patent US20190300618A1 (Merck Sharp & Dohme, published 2019)
